# Reference: article PMC11446282
# Residue numbers refer to the chain shown, from its start.
# B1: 2ABA_HUMAN (protein, UniProt P63151 2-447, looked up)
# Serine/threonine-protein …: AGAGGGNDIQWCFSQVKGAVDDDVAEADIISTVEFNHSGELLATGDKGGRVVIFQQEQENKIQSHSRGEYNVYSTFQSHEPEFDYLKSLEIEEKINKIRWLPQKNAAQFLLSTNDKTIKLWKISERDKRPEGYNLKEEDGRYRDPTTVTTLRVPVFRPMDLMVEASPRRIFANAHTYHINSISINSDYETYLSADDLRINLWHLEITDRSFNIVDIKPANMEELTEVITAAEFHPNSCNTFVYSSSKGTIRLCDMRASALCDRHSKLFEEPEDPSNRSFFSEIISSISDVKFSHSGRYMMTRDYLSVKIWDLNMENRPVETYQVHEYLRSKLCSLYENDCIFDKFECCWNGSDSVVMTGSYNNFFRMFDRNTKRDITLEASRENNKPRTVLKPRKVCASGKRKKDEISVDSLDFNKKILHTAWHPKENIIAVATTNNLYIFQDKVN
# B2: ARP19_HUMAN (protein, UniProt P56211 2-112, looked up)
# cAMP-regulated phosphoprotein …: SAEVPEAASAEEQKEMEDKVTSPEKAEEAKLKARYPHLGQKPGGSDFLRKRLQKGQKYFDSGDYNMAKAKMKNKQLPTAAPDKTEVTGDHIPTPQDLPQRKPSLVASKLAG
# B3: IER5_HUMAN (protein, UniProt Q5VY09 1-327, looked up)
# Immediate early response gene …: MEFKLEAHRIVSISLGKIYNSRVQRGGIKLHKNLLVSLVLRSARQVYLSDPCPGLYLAGPAGTPAPPPQQQPGEPAAGPPAGWGEPPPPAARASWPETEPQPERSSVSDAPRVGDEVPVATVTGVGDVFQGGEADATEAAWSRVEGPRQAAAREAEGTAGGWGVFPEVSRAARRPCGCPLGGEDPPGTPAATPRAACCCAPQPAEDEPPAPPAVCPRKRCAAGVGGGPAGCPAPGSTPLKKPRRNLEQPPSGGEDDDAEEMETGNVANLISIFGSSFSGLLRKSPGGGREEEEGEESGPEAAEPGQICCDKPVLRDMNPWSTAIVAF
# B4: FOXC1_HUMAN (protein, UniProt Q12948 1-553, looked up)
# Forkhead box protein C1: MQARYSVSSPNSLGVVPYLGGEQSYYRAAAAAAGGGYTAMPAPMSVYSHPAHAEQYPGGMARAYGPYTPQPQPKDMVKPPYSYIALITMAIQNAPDKKITLNGIYQFIMDRFPFYRDNKQGWQNSIRHNLSLNECFVKVPRDDKKPGKGSYWTLDPDSYNMFENGSFLRRRRRFKKKDAVKDKEEKDRLHLKEPPPPGRQPPPAPPEQADGNAPGPQPPPVRIQDIKTENGTCPSPPQPLSPAAALGSGSAAAVPKIESPDSSSSSLSSGSSPPGSLPSARPLSLDGADSAPPPPAPSAPPPHHSQGFSVDNIMTSLRGSPQSAAAELSSGLLASAAASSRAGIAPPLALGAYSPGQSSLYSSPCSQTSSAGSSGGGGGGAGAAGGAGGAGTYHCNLQAMSLYAAGERGGHLQGAPGGAGGSAVDDPLPDYSLPPVTSSSSSSLSHGGGGGGGGGGQEAGHHPAAHQGRLTSWYLNQAGGDLGHLASAAAAAAAAGYPGQQQNFHSVREMFESQRIGLNNSPVNGNSSCQMAFPSSQSLYRTSGAFVYDCSKF
# B5: ZDS1 K872: ZDS1, K872 to alanine (protein, UniProt P50111 1-915, looked up, variant K872A)
# Protein ZDS1: MSNRDNESMLRTTSSDKAIASQRDKRKSEVLIAAQSLDNEIRSVKNLKRLSIGSMDLLIDPELDIKFGGESSGRRSWSGTTSSSASMPSDTTTVNNTRYSDPTPLENLHGRGNSGIESSNKTKQGNYLGIKKGVHSPSRKLNANVLKKNLLWVPANQHPNVKPDNFLELVQDTLQNIQLSDNGEDNDGNSNENNDIEDNGEDKESQSYENKENNTINLNRGLSRHGNASLIRRPSTLRRSYTEFDDNEDDDNKGDSASETVNKVEERISKIKERPVSLRDITEELTKISNSAGLTDNDAITLARTLSMAGSYSDKKDQPQPEGHYDEGDIGFSTSQANTLDDGEFASNMPINNTMTWPERSSLRRSRFNTYRIRSQEQEKEVEQSVDEMKNDDEERLKLTKNTIKVEIDPHKSPFRQQDEDSENMSSPGSIGDFQDIYNHYRQSSGEWEQEMGIEKEAEEVPVKVRNDTVEQDLELREGTTDMVKPSATDDNKETKRHRRRNGWTWLNNKMSREDDNEENQGDDENEENVDSQRMELDNSKKHYISLFNGGEKTEVSNKEEMNNSSTSTATSQTRQKIEKTFANLFRRKPHHKHDASSSPSSSPSSSPSIPNNDAVHVRVRKSKKLGNKSGREPVEPIVLRNRPRPHRHHHSRHGSQKISVKTLKDSQPQQQIPLQPQLEGAIEIEKKEESDSESLPQLQPAVSVSSTKSNSRDREEEEAKKKNKKRSNTTEISNQQHSKHVQKENTDEQKAQLQAPAQEQVQTSVPVQASAPVQNSAPVQTSAPVEASAQTQAPAAPPLKHTSILPPRKLTFADVKKPDKPNSPVQFTDSAFGFPLPLLTVSTVIMFDHRLPINVERAIYRLSHLKLSNSARGLREQVLLSNFMYAYLNLVNHTLYMEQVAHDKEQQQQQQQQP
# B6: ZDS1 L863: ZDS1, L863 to alanine (protein, UniProt P50111 1-915, looked up, variant L863A)
# Protein ZDS1: B5 Protein ZDS1 with L863A, A872K
# B7: ZDS1 V879: ZDS1, V879 to alanine (protein, UniProt P50111 1-915, looked up, variant V879A)
# Protein ZDS1: B5 Protein ZDS1 with A872K, V879A
# B8: ZDS1 L881: ZDS1, L881 to alanine (protein, UniProt P50111 1-915, looked up, variant L881A)
# Protein ZDS1: B5 Protein ZDS1 with A872K, L881A
# B9: ZDS1 R876: ZDS1, R876 to alanine (protein, UniProt P50111 1-915, looked up, variant R876A)
# Protein ZDS1: B5 Protein ZDS1 with A872K, R876A
# B10: ZDS1 Y861: ZDS1, Y861 to alanine (protein, UniProt P50111 1-915, looked up, variant Y861A)
# Protein ZDS1: B5 Protein ZDS1 with Y861A, A872K
# B11: ZDS1 L875: ZDS1, L875 to alanine (protein, UniProt P50111 1-915, looked up, variant L875A)
# Protein ZDS1: B5 Protein ZDS1 with A872K, L875A
# B12: ZDS1 R858: ZDS1, R858 to alanine (protein, UniProt P50111 1-915, looked up, variant R858A)
# Protein ZDS1: B5 Protein ZDS1 with R858A, A872K
# B13: ZDS1 E877: ZDS1, E877 to alanine (protein, UniProt P50111 1-915, looked up, variant E877A)
# Protein ZDS1: B5 Protein ZDS1 with A872K, E877A
# B14: ZDS1 I860: ZDS1, I860 to alanine (protein, UniProt P50111 1-915, looked up, variant I860A)
# Protein ZDS1: B5 Protein ZDS1 with I860A, A872K
# B15: ZDS1 S882: ZDS1, S882 to alanine (protein, UniProt P50111 1-915, looked up, variant S882A)
# Protein ZDS1: B5 Protein ZDS1 with A872K, S882A
# B16: ZDS1 R862: ZDS1, R862 to alanine (protein, UniProt P50111 1-915, looked up, variant R862A)
# Protein ZDS1: B5 Protein ZDS1 with R862A, A872K
# B17: ZDS1 Q878: ZDS1, Q878 to alanine (protein, UniProt P50111 1-915, looked up, variant Q878A)
# Protein ZDS1: B5 Protein ZDS1 with A872K, Q878A
# B18: ZDS1 L880: ZDS1, L880 to alanine (protein, UniProt P50111 1-915, looked up, variant L880A)
# Protein ZDS1: B5 Protein ZDS1 with A872K, L880A
# B19: ZDS1 G874: ZDS1, G874 to alanine (protein, UniProt P50111 1-915, looked up, variant G874A)
# Protein ZDS1: B5 Protein ZDS1 with A872K, G874A
# B20: ZDS1 R873: ZDS1, R873 to alanine (protein, UniProt P50111 1-915, looked up, variant R873A)
# Protein ZDS1: B5 Protein ZDS1 with A872K, R873A
# B21: ENSA_HUMAN (protein, UniProt O43768 2-121, looked up)
# Alpha-endosulfine: SQKQEEENPAEETGEEKQDTQEKEGILPERAEEAKLKAKYPSLGQKPGGSDFLMKRLQKGQKYFDSGDYNMAKAKMKNKQLPSAGPDKNLVTGDHIPTPQDLPQRKSSLVTSKLAGGQVE
# Tests used:
# B55α interactors = experiment: MS analysis of B55α WT, V228A, I284A, S287A and D340A immunopurifications; type: binding, human; conditions: log2 ratio of interactor abundance, 4 replicates each, normalised to bait B55α; for log2_ratio_D340_WT: B55α D340A vs WT immunopurification; for log2_ratio I284_WT: B55α I284A vs WT immunopurification; for log2_ratio S287_WT: B55α S287A vs WT immunopurification; for log2_ratio V228_WT: B55α V228A vs WT immunopurification
# Experimental: Standard cloning techniques were used throughout. Point mutations were introduced by whole plasmid polymerase chain reaction (PCR). All constructs were fully sequenced. Synthetic DNA was purchased from GeneArt, Life Technologies and cloned into pcDNA5/FRT/TO (Invitrogen) expression vector containing YFP, resulting in the indicated YFP fusion proteins. These constructs were transiently transfected into HeLa cells 24 hours before harvesting cells. Cells were lysed in lysis buffer [50 mM tris-HCl (pH 7.5), 50 mM NaCl, 1 mM EDTA, 1 mM […], and 0.1% NP-40]. Complexes were immunoprecipitated at 4°C in lysis buffer with green fluorescent protein (GFP)–Trap (ChromoTek) and washed in lysis buffer. Precipitated protein complexes were washed three times in lysis buffer, eluted in 2× SDS sample buffer, and subjected to Western blotting or MS as indicated.
# Pull-downs were analyzed on a Q-Exactive Plus quadrupole or Fusion Orbitrap Lumos mass spectrometer (Thermo Fisher Scientific) equipped with Easy-nLC 1000 or […] (Thermo Fisher Scientific) and nanospray source (Thermo Fisher Scientific).
# Static modifications included carbamidomethylcysteine, and variable modifications included oxidized methionine and STY phosphorylation. Searches were filtered using orthogonal measures including mass measurement accuracy (±3 parts per million), Xcorr for charges from +2 to +4, and dCn targeting a <1% false discovery rate at the peptide level. Quantification of LC-MS/MS spectra was performed using MassChroQ ([57]) and the iBAQ method ([58]). All data were analyzed using R 4.3.0. Missing values were imputed from a normal distribution. […] In each dataset, the abundance of the protein of interest was normalized to be equal across all samples. Statistical analyses were done using a two-tailed Student’s t test.
# PP2A-B55α = experiment: Single alanine mutational scan, YFP-tagged interactors immunoprecipitated from HeLa cells, Western blot; type: binding, human; conditions: single alanine mutant of YFP-tagged ZDS1
molecule,measurement,setting,value
B1,log2_ratio_D340_WT,B55α interactors,0.00
same,log2_ratio I284_WT,B55α interactors,0.00
same,log2_ratio S287_WT,B55α interactors,0.00
same,log2_ratio V228_WT,B55α interactors,0.00
B2,log2_ratio_D340_WT,B55α interactors,-2.01
same,log2_ratio I284_WT,B55α interactors,-0.06
same,log2_ratio S287_WT,B55α interactors,0.27
same,log2_ratio V228_WT,B55α interactors,-0.89
B3,log2_ratio_D340_WT,B55α interactors,-7.50
same,log2_ratio I284_WT,B55α interactors,0.57
same,log2_ratio S287_WT,B55α interactors,-6.37
same,log2_ratio V228_WT,B55α interactors,-5.72
B4,log2_ratio_D340_WT,B55α interactors,-5.21
same,log2_ratio I284_WT,B55α interactors,-3.45
same,log2_ratio S287_WT,B55α interactors,0.53
same,log2_ratio V228_WT,B55α interactors,-2.65
B5,Experimental % binding,PP2A-B55α,23%
B6,Experimental % binding,PP2A-B55α,110%
B7,Experimental % binding,PP2A-B55α,2%
B8,Experimental % binding,PP2A-B55α,11%
B9,Experimental % binding,PP2A-B55α,0%
B10,Experimental % binding,PP2A-B55α,42%
B11,Experimental % binding,PP2A-B55α,0%
B12,Experimental % binding,PP2A-B55α,75%
B13,Experimental % binding,PP2A-B55α,0%
B14,Experimental % binding,PP2A-B55α,60%
B15,Experimental % binding,PP2A-B55α,98%
B16,Experimental % binding,PP2A-B55α,32%
B17,Experimental % binding,PP2A-B55α,13%
B18,Experimental % binding,PP2A-B55α,0%
B19,Experimental % binding,PP2A-B55α,80%
B20,Experimental % binding,PP2A-B55α,15%
B21,log2_ratio_D340_WT,B55α interactors,-2.08
same,log2_ratio I284_WT,B55α interactors,-0.42
same,log2_ratio S287_WT,B55α interactors,0.42
same,log2_ratio V228_WT,B55α interactors,-1.31
